± gives the standard deviation of the averaged measurements.
Columns and labels:
Saccharomyces cerevisiae [1] = test: protein stability index of tFT-peptide fusion (C-terminal peptide) (PSI (0-1 scale)); higher = more stable (slower turnover)
Description: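 MPS profiling in S. cerevisiae of the tFT-X12 degron library: putative degron peptides plus stable controls, 12 aa, fused to the C-terminus of a sfGFP-mCherry timer. Cells are FACS-sorted into 8 mCherry/sfGFP bins and deep-sequenced. PSI runs from 0 (unstable) to 1 (stable). Backgrounds are wild type, das1Δ and doa10Δ at 30 °C, and wild type, das1Δ, cdc34-1 and cdc53-1 at 37 °C; 2-3 technical replicates each.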

Saccharomyces cerevisiae [2] = test: as above; conditions: genetic background: wild type; temperature: 30 C
[3] = genetic background: cdc34-1, temperature: 37 C
[4] = genetic background: cdc53-1, temperature: 37 C
[5] = genetic background: das1 deletion, temperature: 30 C
[6] = genetic background: das1 deletion, temperature: 37 C
[7] = genetic background: doa10 deletion, temperature: 30 C
[8] = genetic background: wild type, temperature: 30 C
[9] = genetic background: wild type, temperature: 37 C
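Note: PSI is a weighted mean of sequencing reads over stability bins, variants kept only with over 10 reads, mCherry proximal and sfGFP distal, peptide attached via GGGS linker.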

Sequence	protein stability index (Saccharomyces cerevisiae [2])	further results
VLLCGRMVVVEW		protein stability index (Saccharomyces cerevisiae [1]; [3]): 0.0831 ± 0.0095; protein stability index (Saccharomyces cerevisiae [1]; [4]): 0.163 ± 0.0037; protein stability index (Saccharomyces cerevisiae [1]; [5]): 0.163 ± 0.01; protein stability index (Saccharomyces cerevisiae [1]; [6]): 0.143 ± 0.011; protein stability index (Saccharomyces cerevisiae [1]; [7]): 0.196 ± 0.032; protein stability index (Saccharomyces cerevisiae [1]; [8]): 0.153 ± 0.014; protein stability index (Saccharomyces cerevisiae [1]; [9]): 0.132 ± 0.021
SSLRATLLIRAV		protein stability index (Saccharomyces cerevisiae [1]; [3]): 0.543 ± 0.023; protein stability index (Saccharomyces cerevisiae [1]; [4]): 0.564 ± 0.011; protein stability index (Saccharomyces cerevisiae [1]; [5]): 0.44 ± 0.019; protein stability index (Saccharomyces cerevisiae [1]; [6]): 0.584 ± 0.0032; protein stability index (Saccharomyces cerevisiae [1]; [7]): 0.352 ± 0.025; protein stability index (Saccharomyces cerevisiae [1]; [8]): 0.371 ± 0.032; protein stability index (Saccharomyces cerevisiae [1]; [9]): 0.5171 ± 0.0041
EGREGGGRGEVL		protein stability index (Saccharomyces cerevisiae [1]; [3]): 0.455 ± 0.011; protein stability index (Saccharomyces cerevisiae [1]; [4]): 0.589 ± 0.04; protein stability index (Saccharomyces cerevisiae [1]; [5]): 0.471 ± 0.029; protein stability index (Saccharomyces cerevisiae [1]; [6]): 0.496 ± 0.03; protein stability index (Saccharomyces cerevisiae [1]; [7]): 0.482 ± 0.024; protein stability index (Saccharomyces cerevisiae [1]; [8]): 0.479 ± 0.011; protein stability index (Saccharomyces cerevisiae [1]; [9]): 0.472 ± 0.013
GGRREWCRGGGV		protein stability index (Saccharomyces cerevisiae [1]; [3]): 0.635 ± 0.11; protein stability index (Saccharomyces cerevisiae [1]; [4]): 0.746 ± 0.034; protein stability index (Saccharomyces cerevisiae [1]; [5]): 0.555 ± 0.029; protein stability index (Saccharomyces cerevisiae [1]; [6]): 0.695 ± 0.03; protein stability index (Saccharomyces cerevisiae [1]; [7]): 0.544 ± 0.0089; protein stability index (Saccharomyces cerevisiae [1]; [8]): 0.546 ± 0.015; protein stability index (Saccharomyces cerevisiae [1]; [9]): 0.708 ± 0.03
ELVYVFLGNLPP	0.632 ± 0.034	
PSAPTNPHARLA	0.689 ± 0.051	
PVAGTLDVHYRV	0.7098 ± 0.0063	
FPPPCVLPLPRT	0.723 ± 0.02	
SSPNPPRELGPY	0.607 ± 0.055	
FGTSLLPLPPPD	0.601 ± 0.025	
LGVAFCAPRLFY	0.743 ± 0.023	
CNIASTLEKTCP	0.7043 ± 0.0062	
EAKKKRIDKKYE	0.776 ± 0.068	
TPPPRSFHRFPC	0.694 ± 0.043	
PSPRPPSPLFPP	0.685 ± 0.073	
YPSQLGPSVPLS	0.703 ± 0.039	
RRGVPIKKPRYF	0.539 ± 0.029	
PSYTSYFVGLST	0.48 ± 0.11	
PHLLRRPPTQRH	0.633 ± 0.049	
FLASFSSFMFYL	0.591 ± 0.016	
NLRSSTSKNNKR	0.659 ± 0.079	
GVLACVEYSRMS	0.683 ± 0.0084	
GQMYTLATSAVV	0.602 ± 0.076	

Sequence	protein stability index (Saccharomyces cerevisiae [2])	further results
PVVLGVGMEGIS	0.7137 ± 0.0068	
GFPRSPALCSQP	0.689 ± 0.017	
IGSEGGKNGRRK	0.616 ± 0.044	
PHRSLHTPTLCS	0.686 ± 0.16	
REKEKMRVVGMT	0.746 ± 0.036	
VRERVRRWVGDG	0.5752 ± 0.0053	
YLGFRVACPMLA	0.501 ± 0.036	
LVSHVPLLPMTP	0.776 ± 0.03	
RGRSLPIPHTFP	0.714 ± 0.085	
GGGAPADSGPGG	0.628 ± 0.036	
LPPATMFFISAS	0.558 ± 0.019	
TDFAVTKDFTEI	0.683 ± 0.033	
GETQAAGAKYLG	0.724 ± 0.019	
SKSCIVSNVLVY	0.511 ± 0.014	
QCIRLFCPLVSL	0.587 ± 0.014	
TTKKKKGKKKYH	0.681 ± 0.048	
PQRTTPPRRHTA	0.717 ± 0.032	
LYTENSDLDRVF	0.657 ± 0.039	
KRFQDRPRPGAH	0.687 ± 0.044	
GACWRDSHSGGD	0.683 ± 0.023	
YSLLSAHLVPIA	0.614 ± 0.027	
RTRKYEDKSARM	0.688 ± 0.021	
SKTIRDTYIFKR	0.816 ± 0.15	

Sequence	protein stability index (Saccharomyces cerevisiae [2])	further results
LPQPQPPVPPPL	0.7209 ± 0.0042	
INWGVRGTLSSE	0.706 ± 0.04	
ASEGRWVSVMGG	0.686 ± 0.05	
NEGGGGRGETVE	0.613 ± 0.021	
PHPLPLPPPVAP	0.711 ± 0.031	
PPFTARPATLAR	0.565 ± 0.017	
SPPPSSSPPPSP	0.612 ± 0.03	
GGGGGRAQEVQG	0.717 ± 0.059	
WVSAMGIPRVVG	0.574 ± 0.05	
PPALPPTGHPPF	0.709 ± 0.013	
GGGARCGLGGRM	0.7 ± 0.053	
SLSPPSSPLPPP	0.703 ± 0.053	
RTIPSPDVRTRD	0.77 ± 0.011	
QGLSHVVTCLFG	0.721 ± 0.07	
GLLRGHVFVGRG	0.692 ± 0.029	
KKKKKKKQKSKK	0.704 ± 0.057	
GRSPMGDGGFFS	0.7284 ± 0.0034	
PSIPRTTLLSCN	0.607 ± 0.037	
SPSHSVSGPLSF	0.648 ± 0.014	
FYFLFVFICLRV	0.6642 ± 0.0062	
SFPFSCSSSVTH	0.72 ± 0.055	
GDITEVDISKHI	0.75 ± 0.051	
SSLQGSCPSKSL	0.7 ± 0.044	

Sequence	protein stability index (Saccharomyces cerevisiae [2])	further results
KIKRKKSIHDKQ	0.693 ± 0.012	
YNANEKTINKDK	0.693 ± 0.063	
LVMTYGFTSVSR	0.687 ± 0.07	
RKNEKKKKKNKK	0.6645 ± 0.0024	
SNRRSSRSLYYM	0.698 ± 0.033	
GPKTFIRSTKEI	0.697 ± 0.03	
GWLLGVGDEFRR	0.734 ± 0.031	
PPLPRLPPPPLP	0.627 ± 0.029	
GSRAECWEVGGV	0.6742 ± 0.004	
PPPPLPPCTPAT	0.6797 ± 0.0047	
SPSFPPHRPPQH	0.724 ± 0.066	
IISAIAPFIRWD	0.69 ± 0.03	
PWPFKQHEHRRA	0.847 ± 0.015	
KNITVVKKAFDA	0.654 ± 0.024	
FYIQVFTPLGGS	0.639 ± 0.0097	
VDRAPFHLGRQG	0.712 ± 0.043	
FFSFILGGFLLG	0.6682 ± 0.00082	
PVPDDVTVLLSR	0.804 ± 0.12	
DTGLGSVVFVVF	0.688 ± 0.036	
LWVSSGASCFIL	0.7239 ± 0.0039	
VGAIGYWCPEWR	0.651 ± 0.019	
SRSISCPVLSKI	0.707 ± 0.017	
KKKKIIKKKNIK	0.77 ± 0.069	

Sequence	protein stability index (Saccharomyces cerevisiae [2])	further results
SSPIRPFLPPGY	0.6709 ± 0.0049	
PFPQVPFPRLAY	0.681 ± 0.066	
EKRRRRRQEAER	0.608 ± 0.03	
RPSRPPPRLLFA	0.644 ± 0.03	
GKGYVFRTLSHL	0.732 ± 0.082	
FNPRIGGDCRSA	0.678 ± 0.031	
PPRPPPHPAPLS	0.755 ± 0.019	
LSSLLFFLSWVV	0.529 ± 0.018	
VALFPVSFFSWL	0.643 ± 0.098	
LPVSGLRAAGAM	0.7154 ± 0.0034	
PPSRLYFLSPRS	0.746 ± 0.039	
SLFFGDCNLVRV	0.7166 ± 0.0036	
GGGLGRVWVKLG	0.716 ± 0.08	
VGAPPCYPVSRL	0.74 ± 0.24	
SSGKRANINKNK	0.695 ± 0.022	
GHFWVFGIPFFR	0.6547 ± 0.0017	
KRKKQGNKKQEE	0.6893 ± 0.0017	
LSPGRPPRPPRR	0.702 ± 0.041	
GRPHRYWRVVPY	0.68 ± 0.036	
HPASPPTPPPLP	0.663 ± 0.014	
TPTPGCYIASLT	0.759 ± 0.21	
GDHGSYAGPALL	0.673 ± 0.047	
VPRAPSPCPVSL	0.71 ± 0.046	

Sequence	protein stability index (Saccharomyces cerevisiae [2])	further results
LPLPPPSPFPPL	0.691 ± 0.015	
LTPLPSRPPPLP	0.683 ± 0.087	
RRERRKKTETDK	0.7348 ± 0.0073	
GAGAAVHRAAPG	0.672 ± 0.029	
PLPPTPSLDPSS	0.6992 ± 0.0033	
SSSLRLCSCAGQ	0.723 ± 0.049	
NMQRKSRNQIID	0.707 ± 0.074	
LPRPAPPIRPRT	0.74 ± 0.013	
PPPAPPTPPSPP	0.628 ± 0.028	
RSTLGLAPPQSG	0.67 ± 0.029	
LSGYTLRRIISQ	0.704 ± 0.063	
GIASKCFWFVCG	0.645 ± 0.018	
LLFPPVCRPCLS	0.605 ± 0.11	
RLVLTHVSRCWQ	0.673 ± 0.065	
PLLPPLPVSPLP	0.704 ± 0.038	
DVVFVARGRAND	0.7002 ± 0.0037	
PPPPPPLFPPCP	0.659 ± 0.11	
ERLACRFRTVVM	0.595 ± 0.053	
RCSFSYLPVIQV	0.582 ± 0.006	
FPLPPPPPAVFL	0.673 ± 0.086	
FVSLVGGFVGTV	0.646 ± 0.037	
LPAFAPLCLPTL	0.703 ± 0.02	
EEMTVKKERKRI	0.641 ± 0.051	

— the supplement of paper PMC10724198
